Measurements reported in paper PMC12421854.

Legend:
[1] = molecular target: ForJ (Streptomyces formicae); experiment: mass photometry; ReFeyn mass photometry of purified ForJ reduced with TCEP; monomers to dimer
[2] = molecular target: ForJ (Streptomyces formicae); experiment: non-reducing SDS-PAGE; purified ForJ exposed to increasing DTT; no beta-mercaptoethanol and no boiling before loading; monomers and dimers
[3] = molecular target: ForJ (Streptomyces formicae); experiment: non-reducing SDS-PAGE; purified ForJ exposed to increasing H2O2; no beta-mercaptoethanol and no boiling before loading; dimers to dimer of dimers
[4] = molecular target: ForJ (Streptomyces formicae); experiment: mass photometry; ReFeyn mass photometry of purified ForJ without reducing agent (oxidized); 38 kDa and 76 kDa states both present; dimers to dimer of dimers

stoichiometry N [1]: 2
stoichiometry N [2]: 2
stoichiometry N [3]: 4
stoichiometry N [4]: 4
Substance: ForJ (natural protein)
